This is an account of results in paper PMC5493779, “Recognition of a glycosylation substrate by the O-GlcNAc transferase TPR repeats” (Open Biology, 2017).

Where no end group is shown, it is not given here.

The target of experiment [1] is T1, His6-hOGT (312-1031), wild type (human) (UniProt O15294).
T1 sequence: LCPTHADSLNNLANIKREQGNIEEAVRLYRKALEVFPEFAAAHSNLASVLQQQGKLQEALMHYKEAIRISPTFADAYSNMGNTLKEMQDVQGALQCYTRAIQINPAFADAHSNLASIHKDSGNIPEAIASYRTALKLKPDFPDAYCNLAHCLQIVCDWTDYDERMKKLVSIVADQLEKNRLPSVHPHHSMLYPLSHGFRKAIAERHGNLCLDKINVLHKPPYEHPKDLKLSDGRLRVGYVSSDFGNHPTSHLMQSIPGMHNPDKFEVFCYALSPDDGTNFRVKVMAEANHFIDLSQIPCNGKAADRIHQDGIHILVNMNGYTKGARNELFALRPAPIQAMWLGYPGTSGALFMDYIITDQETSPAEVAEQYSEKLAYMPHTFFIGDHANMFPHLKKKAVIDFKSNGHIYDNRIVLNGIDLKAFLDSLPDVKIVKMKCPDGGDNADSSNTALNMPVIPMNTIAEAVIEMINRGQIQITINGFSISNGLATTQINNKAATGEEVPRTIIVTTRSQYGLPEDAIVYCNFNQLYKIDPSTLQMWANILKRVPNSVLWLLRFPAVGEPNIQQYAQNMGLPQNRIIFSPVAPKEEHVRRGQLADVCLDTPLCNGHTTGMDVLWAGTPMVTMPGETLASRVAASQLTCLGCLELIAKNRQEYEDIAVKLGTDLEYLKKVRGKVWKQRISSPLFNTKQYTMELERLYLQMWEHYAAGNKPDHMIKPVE

Experiment [2] has as its target T2, human O-GlcNAc transferase, truncated (315-1031), as it stands in the substrate:OGT fusion proteins (human, UniProt O15294-3 315-1031).
T2 construct: human O-GlcNAc transferase (OGT), codon-optimised, residues 315-1031 starting at Thr315; holds TPR repeats and the catalytic domain; In the crystals this stretch is joined on one chain to the substrate peptide (m2 or m3) by a GGG linker; the whole chains are m4 and m5; also called hOGT; source: E. coli BL21 (DE3) pLysS, purified (Ni-NTA, anion exchange, gel filtration) as part of the fusion …
T2 sequence (looked up): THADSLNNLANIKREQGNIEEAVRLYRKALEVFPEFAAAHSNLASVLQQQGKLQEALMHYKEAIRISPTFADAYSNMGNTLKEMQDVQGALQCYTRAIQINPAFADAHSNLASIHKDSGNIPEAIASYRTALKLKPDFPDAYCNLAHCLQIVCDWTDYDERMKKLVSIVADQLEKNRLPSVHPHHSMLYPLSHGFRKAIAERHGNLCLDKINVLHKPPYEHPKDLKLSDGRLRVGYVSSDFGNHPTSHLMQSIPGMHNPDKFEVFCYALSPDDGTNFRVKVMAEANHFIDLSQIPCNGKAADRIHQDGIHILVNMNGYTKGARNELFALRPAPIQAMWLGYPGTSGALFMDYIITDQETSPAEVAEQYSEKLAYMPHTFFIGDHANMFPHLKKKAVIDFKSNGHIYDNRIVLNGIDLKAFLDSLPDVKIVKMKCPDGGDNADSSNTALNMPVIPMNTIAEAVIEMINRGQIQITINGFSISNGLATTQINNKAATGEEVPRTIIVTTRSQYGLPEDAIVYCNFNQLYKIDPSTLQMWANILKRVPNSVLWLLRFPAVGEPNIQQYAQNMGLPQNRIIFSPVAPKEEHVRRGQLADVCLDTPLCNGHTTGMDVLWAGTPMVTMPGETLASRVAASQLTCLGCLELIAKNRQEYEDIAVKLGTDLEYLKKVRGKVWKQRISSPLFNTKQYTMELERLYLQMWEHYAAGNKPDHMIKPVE
The experiment is described as follows: crystal structure; substrate peptide fused through a 3xGly linker to the N-terminus of OGT 315-1031 (one chain); about 10 mg/ml protein with 5 mM UDP, sitting drop, 0.1 M Tris pH 8.5; one molecule per asymmetric unit. The conditions noted are these: both partners purified.

The target in experiment [3] is His6-hOGT (312-1031) 5N5A quintuple mutant (human) (UniProt O15294).

Consider KKPVSVPYSSAQSTSKTSVTLSL [free TAB1 peptide …], for which the KM of the TAB1 peptide in steady-state kinetics of O-GlcNAc transfer (50 nM hOGT, 50 µM UDP-GlcNAc, UDP formation by fluorescence) in experiment [1] was determined as 42 µM.

B1: 18-mer HCF1PRO repeat peptide (PPCETHETGTTNTATTAT) (peptide)
peptide: PPCETHETGTTNTATTAT
notes: host cell factor 1 (HCF1), one repeat of the proteolytic processing domain; In the crystal its C-terminus is joined by a GGG linker to Thr315 of OGT on one chain; the whole chain is m4; The PreScission site of the vector was replaced by the peptide and linker; also called HCF1 peptide; host cell factor 1 PPD repeat; source: E. coli BL21 (DE3) pLysS, purified (Ni-NTA, anion exchange, gel …)
With B1, the binding result in experiment [2] is recorded as “binds”.

B2: TAB1 (7-409) protein (domain or fragment)
chain: SLLQSEQQPSWTDDLPLCHLSGVGSASNRSYSADGKGTESHPPEDSWLKFRSENNCFLYGVFNGYDGNRVTNFVAQRLSAELLLGQLNAEHAEADVRRVLLQAFDVVERSFLESIDDALAEKASLQSQLPEGVPQHQLPPQYQKILERLKTLEREISGGAMAVVAVLLNNKLYVANVGTNRALLCKSTVDGLQVTQLNVDHTTENEDELFRLSQLGLDAGKIKQVGIICGQESTRRIGDYKVKYGYTDIDLLSAAKSKPIIAEPEIHGAQPLDGVTGFLVLMSEGLYKALEAAHGPGQANQEIAAMIDTEFAKQTSLDAVAQAVVDRVKRIHSDTFASGGERARFCPRHEDMTLLVRNFGYPLGEMSQPTPSPAPAAGGRVYPVSVPYSSAQSTSKTSVTLSL
In experiment [3], B2 came in with a reduction of glycosyltransferase activity on TAB1 (7-409) against WT OGT, western blot with an O-GlcNAc Ser395 specific antibody, quantified of 50%.

B3: 18-mer TAB1 peptide derived from the S395 glycosylation site (VPYSSAQSTSKTSVTLSL) (peptide)
peptide: VPYSSAQSTSKTSVTLSL
modifications: also: O-GlcNAc on Ser395
notes: In the crystal its C-terminus is joined by a GGG linker to Thr315 of OGT on one chain; the whole chain is m5; Extra density near Ser396 and Ser399 hints at further glycosylation; also called TAB1 C-terminal domain; source: E. coli BL21 (DE3) pLysS, purified (Ni-NTA, anion exchange, gel filtration) as part of the fusion protein
For the molecule B3, in experiment [2], the binding result is “binds”.
